Reference: the supplement of paper PMC7877785
± gives the uncertainty stated by the source.

Assay: self-splicing fitness, log relative to wild type (ln ratio); higher = more splicing; Tetrahymena group I intron in knt gene, E. coli kanamycin selection, DiMSum; sequences stand for … in CUCUCU…GGAGGGAAAAGUUAUCAGGCAUGCACCUGGUAGCUAGUCUUUAAACCAAUAGAUUGCAUCGGUUUAAAAGGCAAGACCGUCAAAUUGCGGGAAAGGGGUCAACAGCCGUUCAGUACCAAGUCUCAGGGGAAACUUUGAGAUGGCCUUGCAAAGGGUAUGGUAAUAAGCUGACGGACAUGGUCCUAACCACGCAGCCAAGUCCUAAGUCAACAGAUCUUCUGUUGAUAUGGAUGCAGUUCACAGACUAAAUGUCGGUCGGGGAAGAUGUAUUCUUCUCAUAAGAUAUAGUCGGACCUCUCCUUAAUGGGAGCUAGCGGAUGAAGUGAUGCAACACUGGAGCCGCUGGGAACUAAUUUGUAUGCGAAAGUAUAUUGAUUAGUUUUGGAGUACUCGUGGUCG
Summary of the method: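 DiMSum derived fitness as the error-weighted combination of fold changes across replicates, kanamycin versus no kanamycin, normalised to wild type. E. coli BL21(DE3) held the library, which randomised all eight P1ex-region intron nucleotides within the knt kanamycin-resistance gene on pET-22b(+). Six replicate transformations grew overnight at 37°C or 30°C on LB agar with or without 25 μg/mL kanamycin, also containing 100 μg/mL carbenicillin, 50 μM IPTG and 0.2% rhamnose, and pooled colonies were amplicon-sequenced on an Illumina HiSeq 2500.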

Sequence | self-splicing fitness (ln) (30 °C) | self-splicing fitness (ln) (37 °C)
GACUAGCAAUAUUACGGAUA | -1.4 ± 0.09 | -0.349 ± 0.09
GCCAAGCAAUAUUACGACUU | -2.29 ± 0.15 | -1.68 ± 0.16
GCCAAGCAAUAUUACGCACC | -0.566 ± 0.22 | 0.932 ± 0.41
ACGUAGCAAUAUUACGUGAG | -3.75 ± 0.17 | -2.55 ± 0.14
CGGCAGCAAUAUUACGCCCU | -1.01 ± 0.39 | 0.318 ± 0.29
GGCUAGCAAUAUUACGCUAG | -2.5 ± 0.3 | -1.45 ± 0.34
CAGUAGCAAUAUUACGCCCA | -2.16 ± 0.26 | -0.476 ± 0.45
UAGGAGCAAUAUUACGCUUU | -2.54 ± 0.32 | -1.66 ± 0.29
CUAAAGCAAUAUUACGGCAG | -0.0254 ± 0.076 | -0.422 ± 0.098
UUGAAGCAAUAUUACGCAAC | -1.97 ± 0.25 | -2.43 ± 0.39
UUAUAGCAAUAUUACGCUUC | -3.49 ± 0.32 | -3.42 ± 0.43
AGUUAGCAAUAUUACGUAGG | -4.63 ± 0.32 | –
CCUAAGCAAUAUUACGCAAA | -3.38 ± 0.36 | -1.76 ± 0.3
GUGCAGCAAUAUUACGAUAC | -1.58 ± 0.2 | -0.0479 ± 0.17
GUCAAGCAAUAUUACGUUGA | -2.64 ± 0.21 | -3.51 ± 0.4
AUUGAGCAAUAUUACGACCU | -3.17 ± 0.27 | -0.0611 ± 0.17
CGCAAGCAAUAUUACGGCCG | -1.1 ± 0.14 | -0.644 ± 0.26
ACUUAGCAAUAUUACGCGGG | -3.38 ± 0.27 | -2.75 ± 0.2
CAGGAGCAAUAUUACGAGUU | -3.36 ± 0.43 | –
AUGAAGCAAUAUUACGAGAA | -3.53 ± 0.27 | -1.07 ± 0.16
CUAAAGCAAUAUUACGAGAC | -3.33 ± 0.18 | -0.499 ± 0.16
GCGCAGCAAUAUUACGUUGA | -0.0364 ± 0.078 | -0.504 ± 0.085
CAGGAGCAAUAUUACGAUUC | – | -1.93 ± 0.38
AUAUAGCAAUAUUACGUUUA | -2.02 ± 0.25 | -1.63 ± 0.2

Sequence | self-splicing fitness (ln) (30 °C) | self-splicing fitness (ln) (37 °C)
GCACAGCAAUAUUACGCUAU | -1.98 ± 0.08 | -0.752 ± 0.086
GAAAAGCAAUAUUACGGGCC | -1.09 ± 0.14 | -1.37 ± 0.17
UUAGAGCAAUAUUACGUAUG | -1.6 ± 0.085 | -1.31 ± 0.12
UAGAAGCAAUAUUACGCUAA | -1.42 ± 0.12 | -0.983 ± 0.1
AGCCAGCAAUAUUACGCAGU | -4 ± 0.2 | -3.46 ± 0.21
CCAAAGCAAUAUUACGCUCG | -1.97 ± 0.11 | -0.271 ± 0.12
CCACAGCAAUAUUACGCAGC | -3.88 ± 0.22 | -2.83 ± 0.25
CCAUAGCAAUAUUACGAUCG | -0.244 ± 0.053 | 0.361 ± 0.081
CUAAAGCAAUAUUACGACGU | -3.33 ± 0.28 | -0.435 ± 0.19
CGGCAGCAAUAUUACGUACU | -0.872 ± 0.052 | -0.714 ± 0.06
ACCGAGCAAUAUUACGUAAC | -4.02 ± 0.32 | -2.88 ± 0.35
CUCAAGCAAUAUUACGCACU | -3.2 ± 0.24 | -2.08 ± 0.28
AUUCAGCAAUAUUACGGCUG | -1.86 ± 0.2 | -2.59 ± 0.31
GCAUAGCAAUAUUACGGCGU | -0.347 ± 0.091 | 0.0454 ± 0.089
GGAGAGCAAUAUUACGAUUG | -2.75 ± 0.26 | -2.17 ± 0.43
UUGGAGCAAUAUUACGGUAA | -1.27 ± 0.26 | -1.01 ± 0.27
UAGCAGCAAUAUUACGUUAA | -2.13 ± 0.099 | -1.15 ± 0.084
GCUAAGCAAUAUUACGUCUC | -0.757 ± 0.066 | -0.164 ± 0.072
UUUGAGCAAUAUUACGGUCU | – | -2.63 ± 0.41
CUAUAGCAAUAUUACGCGGG | -3.11 ± 0.28 | -2.88 ± 0.31
UGGAAGCAAUAUUACGUUAG | -0.289 ± 0.094 | -1.07 ± 0.14
UGUAAGCAAUAUUACGAUCA | 0.319 ± 0.079 | 0.535 ± 0.13
AACGAGCAAUAUUACGAAGU | -2.75 ± 0.17 | -2.86 ± 0.31
GAUAAGCAAUAUUACGGUAA | -2.64 ± 0.22 | -1.46 ± 0.15
